In patent US5811267:

How the values were obtained:
[1] = biological target: P-glycoprotein (product of the human MDR1 gene) (human) (UniProt P08183); experiment: indirect immunofluorescence on drug-resistant cell lines against drug-sensitive parental KB-3-1 cells
[2] = biological target: P-glycoprotein (product of the human MDR1 gene) (human) (UniProt P08183); experiment: solid phase whole-cell ELISA, hybridoma supernatant on fixed BATV.2 cells (human MDR1 transfected 3T3) against parent BA3T3 cells

- fold reaction on resistant cell lines over KB-3-1 cells [1]: > 2 fold
- fold reaction on BATV.2 cells over parent BA3T3 cells [2]: > 2 fold
Substance: monoclonal antibody produced by the hybridoma cell line 15D3 (ATCC No. HB11342)
